Measurements as given in PMC5529588, “OsFH15, a class I formin, interacts with microfilaments and microtubules to regulate grain size via affecting cell expansion in rice” (Scientific Reports, 2017).

Target: actin filaments (rabbit muscle actin, polymerized) (rabbit, UniProt P68135 1-377)
Experiment: co-sedimentation; high-speed cosedimentation; 3 uM actin (AFs) with 0.25-8 uM FH1FH2; bound against free protein fitted with a hyperbolic function; three independent experiments; methods in the supplement
Conditions: both partners purified

- Kd: 1.51 ± 0.07 µM
B1: OsFH15 FH2 (truncated recombinant protein containing the FH2 domain of OsFH15) (domain or fragment)
chain: not shown
notes: OsFH15, class I formin of Oryza sativa, 788 a.a; source: E. coli Transetta (DE3), pET-30a(+), purified (Ni-NTA)
